Measurements reported in patent US20030180282A1, “Method of treatment of thrombotic events” (priority 2002, published 2003).

Tests used:
[1] = tested on: platelet-derived biomarkers; assay: ASSENT-2 platelet substudy: ELISA of platelet-derived biomarkers in plasma of AMI patients; assay type: in vivo, human
Description: Forty-one patients with ST-segment elevation AMI enrolled in a single ASSENT-2 site (Rashid Hospital, Dubai, United Arab Emirates) were studied. The inclusion and exclusion criteria of ASSENT-2 have been previously reported ([no authors listed] (1999) Lancet 354:716-722). Briefly, patients included in the trial were between 18 and 70 years of age and were seen within 6 hours of symptom onset with >30 minutes of continuous symptoms. […] After informed consent was obtained, 7 serum samples were drawn. Samples were collected at baseline and at 30-minute intervals during a 180-minute period. Within 15 minutes of sample acquisition, plasma was separated by centrifugation at 800 g for 10 minutes, aspirated, placed in vials, and snapped frozen at −20° C.
Enzyme-linked immunosorbent assay (ELISA) was used according to standard sandwich techniques for CD 31 (sPECAM-1), sVACAM-1, sP-selectin, (R&D Systems Inc. Minneapolis, Minn.), beta-thromboglobulin, Asserachrom® (Diagnostica Stago Inc., Parsippany, N.J.), platelet factor 4 Asserachrom®, thromboxane, and prostacyclin (Cayman Chemical Co., MI). Each sample was measured in duplicate, and the overall intra-assay coefficient of variation was between 3.1%±0.4% and 7.6%±1.0%, with a plasma recovery rate between 89.7% and 98.7%.
For all comparisons, statistical analyses were done by using repeated measures ANOVA. Post hoc comparison was performed by use of the Bonferroni t-test to identify specific differences in platelet aggregation and receptor expression between patients treated with TNK and t-PA, and controls. The Mann-Whitney U test was used to analyze non-parametric data. Normally distributed data were expressed as mean±SE, and skewed data as median (range). Probability values of P<0.05 were regarded as statistically significant. Linear regression analysis was applied to normally distributed data for all study participants by using the Statview 4.1 program for analysis.
In the ASSENT-2 Platelet Substudy, 21 of the 41 patients enrolled received TNK (30-50 mg), while the remaining 20 received t-PA (40-85 mg). There were no substantial differences in baseline characteristics for the AMI patients.

[2] = tested on: platelets; assay: platelet aggregation in platelet-rich plasma of AMI patients during first 24 hours after r-PA or t-PA; assay type: in vivo, human; conditions: 3, 6, 12, 24 hours; r-PA: all agonists except ristocetin
From the text: Twenty-three consecutive patients admitted to the emergency rooms of St. Agnes Hospital, or the Union Memorial Hospital between July and December of 1996 with a diagnosis of acute myocardial infarction were included. All patients were enrolled in the randomized trial of Reteplase (r-PA) versus accelerated Alteplase (t-PA) for the treatment of acute myocardial infarction, (GUSTO-III trial). […]
The schedule of blood drawing, sample preparation and processing were critical issues of the study design, and were monitored by an independent observer. […]
Citrate and whole blood were immediately mixed 1:9 and then centrifuged at 1200 g for 2.5 minutes in order to obtain platelet-rich plasma (PRP) which was kept at room temperature for use within 1 hour. Platelet counts were determined for each PRP sample with Coulter Counter ZM (Coulter Co., Hialeah, Fla.). […] PA was expressed as the maximum percentage of light transmittance change from the baseline using platelet-poor plasma as a reference at the end of the recording time. PA curves were recorded for 4 minutes and analyzed according to internationally established standards (see, e.g. Ruggeri, Z. M. (1994) Semin. Hemat. 31:229-239). […]

B1: t-PA: recombinant tissue plasminogen activator, thrombolytic agent (Genentech) (protein, UniProt P00750 36-562, looked up)
Tissue-type plasminogen …: SYQVICRDEKTQMIYQQHQSWLRPVLRSNRVEYCWCNSGRAQCHSVPVKSCSEPRCFNGGTCQQALYFSDFVCQCPEGFAGKCCEIDTRATCYEDQGISYRGTWSTAESGAECTNWNSSALAQKPYSGRRPDAIRLGLGNHNYCRNPDRDSKPWCYVFKAGKYSSEFCSTPACSEGNSDCYFGNGSAYRGTHSLTESGASCLPWNSMILIGKVYTAQNPSAQALGLGKHNYCRNPDGDAKPWCHVLKNRRLTWEYCDVPSCSTCGLRQYSQPQFRIKGGLFADIASHPWQAAIFAKHRRSPGERFLCGGILISSCWILSAAHCFQERFPPHHLTVILGRTYRVVPGEEEQKFEVEKYIVHKEFDDDTYDNDIALLQLKSDSSRCAQESSVVRTVCLPPADLQLPDWTECELSGYGKHEALSPFYSERLKEAHVRLYPSSRCTSQHLLNRTVTDNMLCAGDTRSGGPQANLHDACQGDSGGPLVCLNDGRMTLVGIISWGLGCGQKDVPGVYTKVTNYLDWIRDNMRP
B1 was tested, and the “P-selectin plasma concentrations, course” value ([1]; 180-minute period) was “increase steadily”, the “plasma levels of PECAM-1” value ([1]; AMI patients after thrombolysis) was “not in t-PA-treated patients” and the “release of substances from platelets (plasma biomarkers)” value ([1]; TNK 30-50 mg, t-PA 40-85 mg, 180-minute period) was “decreased release”. For the same molecule, the “vascular cell adhesion molecule-1 (VCAM-1) release” value ([1]; after 90 minutes) was “no marked changes”, the “concentrations of α-granule constituents” value ([1]; to a lesser extent than TNK) was “Decreased concentrations” and the “platelet aggregation, change between baseline and other time points” value [2] was “no statistically significant differences”.
